In patent US20260258135A1 (BIOINTRON BIOLOGICAL, published 2026):

B1: B378737-ZH-1 (VHH)
VHH: QVQLVESGGGLVQPGGSLRLSCAASARSINGQEWYRQAPGERRELVAGITAGGSAYYTDTVKGRFTISRDNAENTGYLQMNSLSPDDTAVYYCRRQFGPNWYWGQGTQVTVSS
notes: Hotspot combination (positions 32 and 97); not shown: human IgG Fc implied (supernatant captured with goat anti-human IgG Fc)
B2: B378737-ZH-4 (VHH)
VHH: QVQLVESGGGLVQPGGSLRLSCAASARSINGQEWYRQAPGERRELVAGITAGGSAYYTDTHKGRFTISRDNAENTGYLQMNSLSPDDTAVYYCRRQVGPNWYWGQGTQVTVSS
notes: Hotspot combination (positions 32, 61 and 97); not shown: human IgG Fc implied (supernatant captured with goat anti-human IgG Fc)
B3: B378737-ZH-2 (VHH)
VHH: QVQLVESGGGLVQPGGSLRLSCAASARSINGQEWYRQAPGERRELVAGITAGGSAYYTDTVKGRFTISRDNAENTGYLQMNSLSPDDTAVYYCRRQVGPNWYWGQGTQVTVSS
notes: as for B1
B4: B378737-97-1 (VHH)
VHH: QVQLVESGGGLVQPGGSLRLSCAASARSINGMEWYRQAPGERRELVAGITAGGSAYYTDTVKGRFTISRDNAENTGYLQMNSLSPDDTAVYYCRRQFGPNWYWGQGTQVTVSS
notes: Single-point mutant of B378737 (position 97); not shown: human IgG Fc implied (supernatant captured with goat anti-human IgG Fc)
B5: B378737-97-2 (VHH)
VHH: QVRLVESGGGLVQPGGSLRLSCAASARSINGMEWYRQAPGERRELVAGITAGGSAYYTDTVKGRFTISRDNAENTGYLQMNSLSPDDTAVYYCRRQVGPNWYWGQGTQVTVSS
notes: Single-point mutant of B378737 (position 97); copied as printed; not shown: human IgG Fc implied (supernatant captured with goat anti-human IgG Fc)
B6: B378737-32 (VHH)
VHH: QVQLVESGGGLVQPGGSLRLSCAASARSINGQEWYRQAPGERRELVAGITAGGSAYYTDTVKGRFTISRDNAENTGYLQMNSLSPDDTAVYYCRRQYGPNWYWGQGTQVTVSS
notes: Single-point mutant of B378737 (position 32); not shown: human IgG Fc implied (supernatant captured with goat anti-human IgG Fc)
B7: B378737-51 (VHH)
VHH: QVQLVESGGGLVQPGGSLRLSCAASARSINGMEWYRQAPGERRELVAGITSGGSAYYTDTVKGRFTISRDNAENTGYLQMNSLSPDDTAVYYCRRQYGPNWYWGQGTQVTVSS
notes: Single-point mutant of B378737 (position 51); not shown: human IgG Fc implied (supernatant captured with goat anti-human IgG Fc)
B8: B378737-61-1 (VHH)
VHH: QVQLVESGGGLVQPGGSLRLSCAASARSINGMEWYRQAPGERRELVAGITAGGSAYYTDTPKGRFTISRDNAENTGYLQMNSLSPDDTAVYYCRRQYGPNWYWGQGTQVTVSS
notes: Single-point mutant of B378737 (position 61); not shown: human IgG Fc implied (supernatant captured with goat anti-human IgG Fc)
B9: B378737-61-2 (VHH)
VHH: QVQLVESGGGLVQPGGSLRLSCAASARSINGMEWYRQAPGERRELVAGITAGGSAYYTDTYKGRFTISRDNAENTGYLQMNSLSPDDTAVYYCRRQYGPNWYWGQGTQVTVSS
notes: as for B8
B10: B378737-61-3 (VHH)
VHH: QVQLVESGGGLVQPGGSLRLSCAASARSINGMEWYRQAPGERRELVAGITAGGSAYYTDTSKGRFTISRDNAENTGYLQMNSLSPDDTAVYYCRRQYGPNWYWGQGTQVTVSS
notes: as for B8
B11: B378737-61-4 (VHH)
VHH: QVQLVESGGGLVQPGGSLRLSCAASARSINGMEWYRQAPGERRELVAGITAGGSAYYTDTTKGRFTISRDNAENTGYLQMNSLSPDDTAVYYCRRQYGPNWYWGQGTQVTVSS
notes: as for B8
B12: B378737-61-5 (VHH)
VHH: QVQLVESGGGLVQPGGSLRLSCAASARSINGMEWYRQAPGERRELVAGITAGGSAYYTDTHKGRFTISRDNAENTGYLQMNSLSPDDTAVYYCRRQYGPNWYWGQGTQVTVSS
notes: as for B8
B13: B378737-61-6 (VHH)
VHH: QVQLVESGGGLVQPGGSLRLSCAASARSINGMEWYRQAPGERRELVAGITAGGSAYYTDTKKGRFTISRDNAENTGYLQMNSLSPDDTAVYYCRRQYGPNWYWGQGTQVTVSS
notes: as for B8
B14: B378737-61-7 (VHH)
VHH: QVQLVESGGGLVQPGGSLRLSCAASARSINGMEWYRQAPGERRELVAGITAGGSAYYTDTLKGRFTISRDNAENTGYLQMNSLSPDDTAVYYCRRQYGPNWYWGQGTQVTVSS
notes: as for B8

What follows are binders tested against T1, PDL1/His protein (human, UniProt Q9NZQ7 19-238, limits assumed, biotin-labeled in Examples 4 and 6 (site not stated); unlabeled in Example 9) (assay: Biacore 8K (SPR), purified antibody).
T1 construct: The reagent is named only PDL1/His; also called Biotin-labeled PDL1/His; Bio-PDL1; not shown: His tag
T1 sequence (Q9NZQ7 19-238 limits assumed): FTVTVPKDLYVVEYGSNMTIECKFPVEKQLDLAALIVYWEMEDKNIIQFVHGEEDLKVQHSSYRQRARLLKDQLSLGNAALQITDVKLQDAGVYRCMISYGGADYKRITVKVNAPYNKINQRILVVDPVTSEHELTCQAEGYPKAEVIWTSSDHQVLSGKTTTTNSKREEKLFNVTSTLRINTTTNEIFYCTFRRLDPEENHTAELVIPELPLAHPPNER

Q: For B1, which “fold increase of affinity over the parent antibody B378737” value is on record?
A: The value was 10 times.

Q: For B2, which “fold increase of affinity over the parent antibody B378737” value is on record?
A: The value was 12 times.

What follows are binders tested against T1, PDL1/His protein (assay: sandwich ELISA screen of hotspot combinations, as in Example 4).

Q: Does B3 bind?
A: Result: binds

The binders below were run against T1, PDL1/His protein (assay: hotspot screening sandwich ELISA, anti-human Fc 1.0 ug/mL, Bio-PDL1 4 ng/ml).
Procedure: Goat-anti-human IgG Fc was subjected to serial dilution in Table 5 and coating was performed overnight at 4° C. The coating solution was discarded the next day, and the plate was washed 5 times. Blocking was performed with 1% BSA at room temperature for 1 h, and the plate was washed 5 times. 50 μL B378737 expression supernatant was added to each well, incubation was performed at room temperature for 1 h, and the plate was washed 5 times. Biotin-labeled PDL1/His protein diluted in series was added, incubation was performed at room temperature for 1 h, and the plate was washed 5 times. SA-HRP was added, incubation was performed at room temperature for 0.5 h, and the plate was washed 10 times. TMB color development was terminated after 4 min, and the absorbance at 450 nm was read. […] The sample was the mutant expressing supernatant, and the other processes were the same as above.

Q: Does B4 bind?
A: Result: binds

Q: Does B5 bind?
A: Result: binds

Each binder was assayed against T1, PDL1/His protein (assay: relative affinity ranking, sandwich ELISA, biotin-PDL1/His titrated from 5 ug/mL).
Procedure: The expression supernatants of the 11 single-point mutation molecules screened out in Example 4 and the 4 hotspot combination molecules screened out in Example 5 were subjected to relative affinity ranking. The specific process is as follows: The plate was coated with 1 μg/mL Goat-anti-human IgG Fc at 4° C. overnight. The coating solution was discarded the next day, and the plate was washed 5 times. Blocking was performed with 1% BSA at room temperature for 1 h, and the plate was washed 5 times. 50 μL of 2-fold diluted expression supernatant was added to each well and incubation was performed at room temperature for 1 h, and the plate was washed 5 times. Biotin-labeled PDL1/His diluted in series was added with 5 μg/mL in the first well, 3-fold dilution, and the last well as blank, and incubation was performed at room temperature for 1 h, and the plate was washed 5 times. SA-HRP was added, and incubation was performed at room temperature for 0.5 h, and the plate was washed 10 times. TMB color development was terminated after 4 min, and the absorbance at 450 nm was read.

Q: Does B6 bind?
A: Result: binds

Q: Does B7 bind?
A: Result: binds

Q: Does B8 bind?
A: Result: binds

Q: Does B9 bind?
A: Result: binds

Q: Does B10 bind?
A: Result: binds

Q: Does B11 bind?
A: Result: binds

Q: Does B12 bind?
A: Result: binds

Q: Does B13 bind?
A: Result: binds

Q: Does B14 bind?
A: Result: binds
